The domain aggregation screens of Martell et al. (2025)

Assay: soluble fraction after stress (log2 fold change); higher = more stays soluble; pooled small domains, quantitative proteomics
Conditions: stress: 75 degC
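Also: 20 min heating vs room temperature control held 20 min.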

Sequence	soluble fraction (log2)
HMNREMLVHAIGQLKEKYASALELKYWHGFTEREIAAFLNISEKAANSRLVRGRVMLRKLLE	0.0264
HMNREYELTAEESGQRLDKYLAGEMTDLSRSRIKELVQAGEILVNGKKSKVSYKVQKDDLIQVIVLPLE	-0.402
HMNRITEFVVPEGTKKIRADKLLAESFPDHSRSDFHRAFDASLVRLEGQPISKNRKISQGDVLVFEMPEI	0.505
HMNRPQDLGEPYDGQFREHPEAWAFYAAQSPSYRRSASWWVLGAKQEVTRQRRLAALIDASAQGTRIPALT	-1.8
HMNRREFQFSEGSSNKFWSIELRDQSFIVHYGKIGTNGQAQEKTFATADAAKKEHDKLIAEKTKKGYVEVQ	-0.34
HMNRTKYYDFEGHPAKVVRLTLPVYLNKIGDEVVVYDSQKFAREASPISESQYNRMVAEIFQP	-0.233
HMNSEAVQNVIDKISALPDDITAKAKSQIEEARAAYEALSDSEKARVTNYSTLVAAEKKLASVVKD	0.558
HMNSEERVLDTASKWLVKLDEGLDESEAQVLKVWLATPLHRDTFLEMVALWDKMSVLNELADIV	-1.65
HMNSISDSELKALIKNNYLKFLKRIASDEEIEYHFNQIKNKTILLDELDSIFQNSQEYKDLVEHNNKIQN	-0.268
HMNSKQELAYQTIRARIVDGSYGPGYRIVIDEVARELGVSPIPVREAVRRLEAEGLITYTRHAGARVVA	-0.219
HMNSLQLGSRGPTVSALQAKLNTMLVPSPRLVADGSFGPKTAQAVKAFQQMKRLVADGVVGPKTAAALGLS	-0.156
HMNSLQNNLKQARTRVGLTQGVLASQAGISRQAYSTLESGSANPSTEVALRLAQALQERVELLFYLPER	-0.948
HMNSNKFANAAAVAVAEKPADSYNPLFIYGPSGVGKTHLLYAIANEIHKHHPDYNIVYIKGDQFTNELIN	0.088
HMNSNLSLTSYEEKIFFLLEKEKNLDELILESSFKAGEILSILMDLEIKHAIVSIPGGKYRRK	-3.85
HMNSNQESFENWLSANSWYNKDRAMRVFADSLGQELRNSGVSFEKALTQISAEVRKEFSHKFQ	-0.491
HMNSNSLSFSKFMQEVEAGRVIEVQIKGNDIQGELSDGSKFKTYSPNYPNLVDKLSENKVSIVATPL	-0.0878
HMNSNTIIFSQFLSEVDNGRVTQVQIQGNNIKGTLSNGKDFITYAPNDPNLIEKLTSKGVSISASPID	0.0526
HMNSNTIIINDIMTKIGKEVKNFTEIYSIILKALAEHGEEYVRTNTEYALKNFTGNFDIFLEQLLLK	-0.207
HMNSRAERKEAAKEAIRNLLREGMTFEELTGPWLEKRFAEEPFNRGARSWQMLISEIKEEPEFQHL	-0.014
HMNSRQPEEEALFELLAKNPYSDEQLEEIRIAIGSGISYKDVLVIADIKNTAKQMKKLRLKFTKDTG	-0.561
HMNSTEQQTERFLATLTSLGGNAGNQRLQEALGWQGSTYQRIKQHLLDEGRIRTGRGRGGSVALSEATAT	0.0863
HMNSTGVYQRPDGFWEYRFTLSINGKKLPRRKSTDLMGNKLKTKREAIKAREEAIIALRTEKTI	-1.42
HMNSTVKVPNVVGMSVPQAKALLEQNHLLVQGIREVSTDKAPAGIVINQLPYSDAEVKEERHIYLTVSKGK	0.968

Sequence	soluble fraction (log2)
HMNSVKSPMPGTILGLKVSVGDTVKVGDELLVLESMKMENMINSPIDGTVSKILISEGDSVQHGQELII	0.238
HMNSVSARRSAAITAISTGRIHSQEDLVQALKKAGYPVTQATASRDIEEIGAVRIRNQKGEMVYAIS	0.208
HMNTEEITYSRFQQMLEAGEISQVSIESNRILILPSEETGIEKVLYTGIINDPGLVERLNSAGVEFRAPIE	-0.31
HMNTEFDVPDVVGKTLDEAEFVLKGSNLKRGLIMPVDDPSKAPGTIVRQNPEAGAGNKIRVGDVVDLWVVG	0.271
HMNTELSPKVWDVVQEFILYRKEIKAPMTEHAVKLLIGQLQKLSSDPDEQIEILRQSIVNGWKGIFSLK	-1.2
HMNTGTTISYSDFRDRVASGTVKEVQISDDRITGVLKNDETFNTVPVGNDSGLTKLLDDNGVTYSGTP	0.299
HMNTIFSVNGPVVKVKDTKDFSMMEMVYVGEKKLIGEVIGITESFTTIQVYEVTTGLKVGEPVYTTGAPM	-0.361
HMNTIIHPIRLAYVDSGSIKSMAEQAEIDVKILTSEANSQIFWAIGDEKQIDRLYNLISQVDIIQNK	-1.86
HMNTKHVFIIEQDDEKKRLDIFLVEKLQDSRSFLKKGIVEGWVKVNESVVKPNYKLKQKDQITVIIPP	-1.47
HMNTNDFTIGTRVRTTKKGNGSSDGTSNTARSGIEGTITRIIPEAKYPYLVSTTVPMGWYKKDALEK	0.00349
HMNTPLYLKIREQIFDALRSGRWAANDPLPSETKLASEFEVSQGTIRKAIDDLVAQNILYRHQGRGTFIRR	-1.21
HMNTSSVTVHYQDEAGKSLADTVTLTGKVGETYSSEQKKITGYNFKEVRGNPKGQFTTEAQTVTYVYTQAA	0.211
HMNTWVEIFRAEDQGQIRDASLVLLAVKVAHRVDMNSSSAPWSLMVPAQDQQRAHHELTTYWQENAH	-2.03
HMNVAELIEGHEAEIAEVLKEFSLLYLMRLADELGEMTKSSSGNGPFQVLKGLVYEEIARRG	-1.65
HMNVAVPTPADKRKVRVMKADINAKLRVNDANGAYAVYEELKEWVTLKGFTEWNDDLSKLSETMGSMKRKV	-0.601
HMNVDALVGQRGRVTQTFDPGLRLGRVAVGGDDWRAETTTDQPLREGDLVEVVSVESNTLIVRPIA	0.0567
HMNVDSLIGQTARVIVDINNNDSIGYALVGGQEWTARAENDNDIIPKDTLVEIVGVSGVKLIVRRKE	0.0563
HMNVDSLVGSEARVTAEIDNRKETGTAMVNGQEWTARAESDEEIYPVGTIVEIRKIQGVKLIVSTH	-0.394
HMNVEATAETLLALLKKNGGSLPFGDKSDPEAIQSQLKMSKKTFKKAAGTLFKKKLVRIEDHGIFL	-2.02
HMNVEGEVVVPNVIGRTMKDVAVILSDLGLRMEAEGTGVAKSSQPQHGTSVKRGTVVQVRFEPLSVN	0.648
HMNVEKLREMYPEGTKIILQEMQGESRMAKGLKGTVTHVDDAGQIHMKWENGSSLVLNVEVDTFKKIE	0.0771
HMNVEVDSIGDDDFLVKVSAGTSTEHRVTLTDAYWEQIWSSSLPKKEIISLSFAFLLEREPNSSIMRT	0.161
HMNVNALIGQEGIVIKEINSGSNKIGQVKISGDTWSAVTTNDFTNAIPVGSNVKILKIDGVNLIVEPVY	-0.255

Sequence	soluble fraction (log2)
HMNVNVSFTQLRHKAEHAIQAKNWSEARNLLTLATLMRPTHRNVARRLKAVEQRNRLFRRLLLILTHRKV	-0.429
HMNVPFGFDEVNGKLVKNEEEQAIISEIKSLKNKGLSLRKIAEALNGRGIATKNGKAWTAVQIQRIA	-0.318
HMNVPLYIMIESAVEQRLLDGTYQVGKMIPTEFELMDEFSVSRETVRKAINLLVQRGKLEKKRGIGTFVAS	-3.28
HMNVSDIENKLNEMLSPLEKKVMVLYLEGKSYVEIGELLGRHTKSVDNALQRVKRKLEIYLKNRK	-2.62
HMNVTIGESIKNVINHYGTPIYSYNPNNQEKYYEFHTNKGVLVVTAIGKKNTGYVTRVSMTY	-1.04
HMNVVDTGTDANYRVKISAVNLNMRLGPSTSYKSKGYITPGNYTIIKTSGDWGKVKETGYWVALKYTSKIN	-3.16
HMNVVINNELVSLMVEAMKDGVSSKSIQEEFEGYKISGKTITKKVLTAHVNKALEVFADMQE	-0.582
HMNYDPEEKITQIRTMLEIHSRIEFNEIITPATRRGEIIIIFLALLHMIKRGYIVVRQHRLFGDITIFARD	0.0974
HMNYKDQISRYFQQAFHIYPKYQTMKNEEGNFTSKIFKDDKMIIEGVGKSKKKAEQDVSRKALIHFNVL	-0.376
HMNYKNAIGQVGSVYVPIPPNREGLGQIEVKVQSRVSTVRAVSDHSERLENRVAVRVIELVDDRTLLVEKL	-1.15
HMNYTSEDIKLASELFFHLLNNRILPANDVLASQYYDNNEIREILENMAEEGGLRIFGTRENLHLVSNGE	0.00512
HMNYYDLLGIPKSATKQQIRKAYRTKAKEFHPDVNGPFNSHMHFLLLKQAYETLMDANMRHVYDMALIS	-2.4
HMPADHYEVLGIARDADAAEVKRAYRRLARESHPDANHGDSGAEVRFKAVSAAYEVLSDPERRARYDRFGH	0.0495
HMPANVELLRTFTNKTGTKIKARIVAVSDNKVKLIRDDSKKFIVPIDSLSEEDQKYLKDWIANEVGEQ	-0.16
HMPARTANEEAIRKYLLNHDSITRKETQALLKTGQSAAGRILKEMVENGWLARIGNGRSTGYELR	-0.222
HMPATIEGIRLYLSSGLIKGVGEEMASRIVKAFGTDTIRVLDEEPERLLKVRGVGKKSLDRIRTSWAEH	-0.366
HMPATPDATVQAVQQRLNELGYDVGSADGLMGRGTRSAIIAFQQDRGLAATGVADQALLLQLQP	0.105
HMPAWKINQELQATVIATKANQTRLRIEGQTFETQTAIALKPGQSLLIKVVSLEPQISFALI	-2.45
HMPDFLAELAARMERDAVTEAQIRQVVAQKGHYPEEVSPAQYHPDFFRQWLFPHWEKIVDVIRSSPEYTP	-0.126
HMPDGTATATASVNVRSGASTLSPVLGVLRVGESIGVTGQANGGWVPVNYNGRAGYVYAAYLSFD	-0.915
HMPDKIDSAAQGILDKLIRNDGFMAVTDKSPPEAIYKLFGVSKKVFKQAIGSLYKNRLITIEDAGLRIIPQ	-0.481
HMPDLKIGKDHRLAEYIETKIAEDGYSPGAVLGEIKAKGLEFETEISKPTLYSYIDKGIFLTITNKELPV	0.25
HMPDLQKAIDDLLQVVDKRLNTSFESILNEVNSEKEAVAFFLALLEAVRWGFVKASQSDEGIKIEK	0.211
